Assay [1] deals with T1, Biot-C7 peptide: biotinylated NH2-PYHTLNLLELHHTAMPGSVFSLGLPLATALAIA-COOH (human, biotinylated (position not given)).
T1 construct: also called C7biot; biotinylated antigen-specific peptide
T1 peptide: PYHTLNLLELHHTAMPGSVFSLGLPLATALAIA
Put plainly: activity ELISA on Biot-C7 peptide; column head printed ED50 (ng/ml). Background: An ELISA detects its analyte on a solid surface through an enzyme-linked reagent.

In assay [2] the target is T1, Biot-C7 peptide: biotinylated …. Put plainly: activity ELISA on biotinylated C7 peptide; column head printed ED50 (ng/ml).
Assay [3] has the same target. Put plainly: activity ELISA on Biot-C7 peptide; column head printed ED50 (ng/ml); second batch, no number.
Assay [4] has the same target. Put plainly: activity ELISA on Biot-C7 peptide; column head printed ED50 (ng/ml); batch #170919.

What is called EC50 is the midpoint of the concentration-response curve. Higher therefore signals a need for much substance.

B1: anti-CMKLR1 antibody 2G1 (parental chimeric antibody) (antibody, human IgG1, V domains shown)
VH: EVQLVASGGGLVQPGGSLKLSCAASGFTFSSYGMSWVRQTPDRRLELVATINRYGGSTYYPDSVKGRFTISRDNAKNTLYLQMSSLKSEDTAMYYCPRLIYYGNEGDSWGQGTTLTVSS
VL: QIVLTQSPAIMSASPGEKVTMTCSASSSVSFMHWYQQKSGTSPKRWIYDTTKLTSGVPARFSGSGSGTFYSLTISSMEAEDAATYYCQQWNSKPPLTFGPGTKLELKR
notes: also called 2G1 wt; 2G1 WT
As to B1, the EC50 was 0.222 µg/mL in assay [1] and 0.269 µg/mL in assay [2].

B2: HDLD humanized anti-CMKLR1 antibody (antibody, human IgG1, V domains shown)
VH: EVQLVESGGGLVQPGGSLRLSCAASGFTFSSYAMSWVRQAPGKGLELVATINRYGGSTYYAASVKGRFTISRDNSKNTLYLQMNSLRAEDTAVYYCPKLIYYGNEGDSWGQGTLVTVSS
VL: AIQLTQSPSSLSASVGDRVTITCRASQSVSFLHWYQQKPGKAPKRWIYDATKLTSGVPSRFSGSGSGTDFTLTISSLQPEDFATYYCQQWQSKPPLTFGGGTKVEIK
notes: Variable domains only; fused to constant fragment of human immunoglobulin (human IgG1, kappa)
For B2, the EC50 in assay [1] was 0.193 µg/mL; in assay [2] it was 0.195 µg/mL.

B3: HALA humanized anti-CMKLR1 antibody (VHvAv3-23*04 + VLvAv1-13*01) (antibody, human IgG1, V domains shown)
VH: EVQLVESGGGLVQPGGSLRLSCAASGFTFSSYGMSWVRQAPGKGLELVATINRYGGSTYYPDSVKGRFTISRDNSKNTLYLQMNSLRAEDTAVYYCPRLIYYGNEGDSWGQGTLVTVSS
VL: AIQLTQSPSSLSASVGDRVTITCSASSSVSFMHWYQQKPGKAPKRWIYDTTKLTSGVPSRFSGSGSGTDYTLTISSLQPEDFATYYCQQWNSKPPLTFGGGTKVEIK
notes: Variable domains only; also called germline antibody HALA; IGHV3-23*04 + IGKV1-13*02
In the case of B3, the EC50 in assay [3] came to 0.195 µg/mL; in assay [2], 0.557 µg/mL; in assay [4], 0.253 µg/mL.

B4: HEF-LEF humanized anti-CMKLR1 antibody (antibody, V domains shown)
VH: EVQLVESGGGLVQPGGSLRLSCAASGFTFSSYAMSWVRQAPGKGLELVSTISGSGGSTYYAASVKGRFTISRDNSKNTLYLQMNSLRAEDTAVYYCPKLIYYGNEGDSWGQGTLVTVSS
VL: AIQLTQSPSSLSASVGDRVTITCRASQSVSFLHWYQQKPGKAPKRLIYDASKLESGVPSRFSGSGSGTDFTLTISSLQPEDFATYYCQQWQSKPPLTFGGGTKVEIK
notes: fused to constant fragment of human immunoglobulin
In the case of B4, the EC50 in assay [1] came out at 0.183 µg/mL.

B5: HEF-LDT52S humanized anti-CMKLR1 antibody (antibody, V domains shown)
VH: EVQLVESGGGLVQPGGSLRLSCAASGFTFSSYAMSWVRQAPGKGLELVSTISGSGGSTYYAASVKGRFTISRDNSKNTLYLQMNSLRAEDTAVYYCPKLIYYGNEGDSWGQGTLVTVSS
VL: AIQLTQSPSSLSASVGDRVTITCRASQSVSFLHWYQQKPGKAPKRWIYDASKLTSGVPSRFSGSGSGTDFTLTISSLQPEDFATYYCQQWQSKPPLTFGGGTKVEIK
notes: as for B4
B5: in assay [1], the EC50 worked out at 0.126 µg/mL.

B6: HD-LDT52S humanized anti-CMKLR1 antibody (antibody, V domains shown)
VH: EVQLVESGGGLVQPGGSLRLSCAASGFTFSSYAMSWVRQAPGKGLELVATINRYGGSTYYAASVKGRFTISRDNSKNTLYLQMNSLRAEDTAVYYCPKLIYYGNEGDSWGQGTLVTVSS
VL: AIQLTQSPSSLSASVGDRVTITCRASQSVSFLHWYQQKPGKAPKRWIYDASKLTSGVPSRFSGSGSGTDFTLTISSLQPEDFATYYCQQWQSKPPLTFGGGTKVEIK
notes: as for B4
Turning to B6, the concentration giving a half-maximal response (EC50) in assay [1] was 0.237 µg/mL. This EC50 is about 1.9-fold higher than that of the molecule before.

B7: HCLC humanized anti-CMKLR1 antibody (antibody, human IgG1, V domains shown)
VH: EVQLVESGGGLVQPGGSLRLSCAASGFTFSSYGMSWVRQAPGKGLELVATINRYGGSTYYAASVKGRFTISRDNSKNTLYLQMNSLRAEDTAVYYCPKLIYYGNEGDSWGQGTLVTVSS
VL: AIQLTQSPSSLSASVGDRVTITCRASQSVSFLHWYQQKPGKAPKRWIYDATKLTSGVPSRFSGSGSGTDFTLTISSLQPEDFATYYCQQWNSKPPLTFGGGTKVEIK
notes: as for B2
Turning to B7, the concentration giving a half-maximal response (EC50) in assay [2] was found to be 0.167 µg/mL.

B8: HDLC humanized anti-CMKLR1 antibody (antibody, human IgG1, V domains shown)
VH: EVQLVESGGGLVQPGGSLRLSCAASGFTFSSYAMSWVRQAPGKGLELVATINRYGGSTYYAASVKGRFTISRDNSKNTLYLQMNSLRAEDTAVYYCPKLIYYGNEGDSWGQGTLVTVSS
VL: AIQLTQSPSSLSASVGDRVTITCRASQSVSFLHWYQQKPGKAPKRWIYDATKLTSGVPSRFSGSGSGTDFTLTISSLQPEDFATYYCQQWNSKPPLTFGGGTKVEIK
notes: as for B2
The molecule B8 had an EC50 in assay [2] of 0.197 µg/mL.

B9: HCLD humanized anti-CMKLR1 antibody (antibody, human IgG1, V domains shown)
VH: EVQLVESGGGLVQPGGSLRLSCAASGFTFSSYGMSWVRQAPGKGLELVATINRYGGSTYYAASVKGRFTISRDNSKNTLYLQMNSLRAEDTAVYYCPKLIYYGNEGDSWGQGTLVTVSS
VL: AIQLTQSPSSLSASVGDRVTITCRASQSVSFLHWYQQKPGKAPKRWIYDATKLTSGVPSRFSGSGSGTDFTLTISSLQPEDFATYYCQQWQSKPPLTFGGGTKVEIK
notes: as for B2
For B9, it took 0.333 µg/mL to reach a half-maximal effect in assay [2] (EC50).
